Conditions: Escherichia coli (strain K12), pH 7, Urea, CD, Potassium phosphate 10 mM, reversible: yes (>95%)

For “Phosphocarrier protein HPr wild type, P0AA04”, the denaturant m value (0 °C) was 1.29 kcal/mol/M, the “denaturant midpoint (higher = more stable)” value (shortened to “denaturant midpoint”) (0 °C) was 4 M and the unfolding free energy (0 °C) was 4.63 kcal/mol. The denaturant m value (5 °C) was 1.18 kcal/mol/M, the “denaturant midpoint” value (5 °C) was 4.38 M and the unfolding free energy (5 °C) was 5.08 kcal/mol. The denaturant m value (10 °C) was 1.36 kcal/mol/M, the “denaturant midpoint” value (10 °C) was 4.58 M and the unfolding free energy (10 °C) was 5.31 kcal/mol. The denaturant m value (25 °C) was 1.19 kcal/mol/M, the “denaturant midpoint” value (25 °C) was 4.58 M and the unfolding free energy (25 °C) was 5.31 kcal/mol. For the same substance, the denaturant m value (30 °C) was 1.14 kcal/mol/M, the “denaturant midpoint” value (30 °C) was 4.32 M and the unfolding free energy (30 °C) was 5 kcal/mol. For the same substance, the denaturant m value (35 °C) was 1.01 kcal/mol/M, the “denaturant midpoint” value (35 °C) was 4.04 M and the unfolding free energy (35 °C) was 4.68 kcal/mol. The denaturant m value (40 °C) was 1.06 kcal/mol/M, the “denaturant midpoint” value (40 °C) was 3.58 M and the unfolding free energy (40 °C) was 4.14 kcal/mol. The denaturant m value (45 °C) was 1.01 kcal/mol/M, the “denaturant midpoint” value (45 °C) was 2.9 M and the unfolding free energy (45 °C) was 3.37 kcal/mol. The denaturant m value (50 °C) was 1.11 kcal/mol/M, the “denaturant midpoint” value (50 °C) was 2.09 M and the unfolding free energy (50 °C) was 2.42 kcal/mol.

Source: FireProtDB (doi:10.1021/bi960863y)
